Measured values taken from the supplement of paper PMC10065799, “High-throughput profiling of sequence recognition by tyrosine kinases and SH2 domains using bacterial peptide display” (eLife, 2023).

Experiments:
EPHB1 = EPHB1 (UniProt P54762); experiment: phosphorylation enrichment, bacterial display (enrichment ratio); higher = better substrate or ligand; peptides without Tyr show the background
FGFR1 = FGFR1 (UniProt P11362); experiment: as above
Fer (mouse) = experiment: as above
Hck = Hck (UniProt P08631); experiment: as above
Fyn = Fyn (UniProt P06241); experiment: as above
c-Src = experiment: as above
Jak2 = Jak2 (UniProt O60674); experiment: as above
FGFR3 = FGFR3 (UniProt P22607); experiment: as above
Chain of FGFR3 (P22607 whole entry, looked up): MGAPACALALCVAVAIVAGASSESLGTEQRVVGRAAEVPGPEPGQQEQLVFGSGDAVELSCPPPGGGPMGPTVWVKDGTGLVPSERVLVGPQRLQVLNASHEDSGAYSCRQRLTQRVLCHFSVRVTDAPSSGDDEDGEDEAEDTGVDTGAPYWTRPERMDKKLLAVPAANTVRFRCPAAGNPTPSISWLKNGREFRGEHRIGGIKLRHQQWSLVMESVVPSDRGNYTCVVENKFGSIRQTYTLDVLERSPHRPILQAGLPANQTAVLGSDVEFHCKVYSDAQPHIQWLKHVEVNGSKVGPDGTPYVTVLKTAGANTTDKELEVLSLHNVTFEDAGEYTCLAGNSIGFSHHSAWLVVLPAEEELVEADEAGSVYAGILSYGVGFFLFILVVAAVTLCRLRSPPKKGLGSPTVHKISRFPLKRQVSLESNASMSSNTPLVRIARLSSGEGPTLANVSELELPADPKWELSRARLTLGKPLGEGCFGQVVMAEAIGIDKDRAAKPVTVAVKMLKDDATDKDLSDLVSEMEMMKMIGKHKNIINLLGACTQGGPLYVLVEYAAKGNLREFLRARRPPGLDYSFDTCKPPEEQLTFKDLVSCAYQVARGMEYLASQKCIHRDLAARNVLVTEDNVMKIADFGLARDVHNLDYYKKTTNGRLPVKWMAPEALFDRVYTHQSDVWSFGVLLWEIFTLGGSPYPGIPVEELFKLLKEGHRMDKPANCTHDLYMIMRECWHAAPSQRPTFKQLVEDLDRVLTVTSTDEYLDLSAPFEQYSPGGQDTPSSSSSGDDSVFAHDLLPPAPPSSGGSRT

Fes = Fes (UniProt P07332); experiment: as above
Chain of Fes (P07332 whole entry, looked up): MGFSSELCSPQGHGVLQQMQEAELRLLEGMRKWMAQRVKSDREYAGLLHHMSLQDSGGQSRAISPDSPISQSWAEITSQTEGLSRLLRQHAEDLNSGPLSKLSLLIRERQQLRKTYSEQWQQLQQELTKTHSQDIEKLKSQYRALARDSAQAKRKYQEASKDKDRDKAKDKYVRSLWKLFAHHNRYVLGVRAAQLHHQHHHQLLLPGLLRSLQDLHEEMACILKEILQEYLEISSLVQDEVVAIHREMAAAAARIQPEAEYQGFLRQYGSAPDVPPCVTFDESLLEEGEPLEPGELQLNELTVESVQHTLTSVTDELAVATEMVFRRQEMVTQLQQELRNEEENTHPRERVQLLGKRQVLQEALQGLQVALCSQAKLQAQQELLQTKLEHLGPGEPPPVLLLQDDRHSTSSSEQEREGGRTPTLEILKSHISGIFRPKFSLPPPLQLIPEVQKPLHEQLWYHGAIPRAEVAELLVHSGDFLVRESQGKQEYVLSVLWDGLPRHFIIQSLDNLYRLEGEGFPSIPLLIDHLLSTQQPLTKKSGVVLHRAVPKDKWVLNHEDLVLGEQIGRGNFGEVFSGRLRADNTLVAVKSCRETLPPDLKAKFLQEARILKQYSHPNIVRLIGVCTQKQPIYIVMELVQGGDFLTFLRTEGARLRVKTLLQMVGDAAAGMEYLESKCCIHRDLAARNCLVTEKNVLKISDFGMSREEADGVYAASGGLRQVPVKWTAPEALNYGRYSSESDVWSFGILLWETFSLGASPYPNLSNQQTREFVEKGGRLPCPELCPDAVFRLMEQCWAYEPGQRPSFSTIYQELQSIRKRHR

AncSZ = experiment: as above
EPHB2 = EPHB2 (UniProt P29323); experiment: as above
Chain of EPHB2 (P29323 whole entry, looked up): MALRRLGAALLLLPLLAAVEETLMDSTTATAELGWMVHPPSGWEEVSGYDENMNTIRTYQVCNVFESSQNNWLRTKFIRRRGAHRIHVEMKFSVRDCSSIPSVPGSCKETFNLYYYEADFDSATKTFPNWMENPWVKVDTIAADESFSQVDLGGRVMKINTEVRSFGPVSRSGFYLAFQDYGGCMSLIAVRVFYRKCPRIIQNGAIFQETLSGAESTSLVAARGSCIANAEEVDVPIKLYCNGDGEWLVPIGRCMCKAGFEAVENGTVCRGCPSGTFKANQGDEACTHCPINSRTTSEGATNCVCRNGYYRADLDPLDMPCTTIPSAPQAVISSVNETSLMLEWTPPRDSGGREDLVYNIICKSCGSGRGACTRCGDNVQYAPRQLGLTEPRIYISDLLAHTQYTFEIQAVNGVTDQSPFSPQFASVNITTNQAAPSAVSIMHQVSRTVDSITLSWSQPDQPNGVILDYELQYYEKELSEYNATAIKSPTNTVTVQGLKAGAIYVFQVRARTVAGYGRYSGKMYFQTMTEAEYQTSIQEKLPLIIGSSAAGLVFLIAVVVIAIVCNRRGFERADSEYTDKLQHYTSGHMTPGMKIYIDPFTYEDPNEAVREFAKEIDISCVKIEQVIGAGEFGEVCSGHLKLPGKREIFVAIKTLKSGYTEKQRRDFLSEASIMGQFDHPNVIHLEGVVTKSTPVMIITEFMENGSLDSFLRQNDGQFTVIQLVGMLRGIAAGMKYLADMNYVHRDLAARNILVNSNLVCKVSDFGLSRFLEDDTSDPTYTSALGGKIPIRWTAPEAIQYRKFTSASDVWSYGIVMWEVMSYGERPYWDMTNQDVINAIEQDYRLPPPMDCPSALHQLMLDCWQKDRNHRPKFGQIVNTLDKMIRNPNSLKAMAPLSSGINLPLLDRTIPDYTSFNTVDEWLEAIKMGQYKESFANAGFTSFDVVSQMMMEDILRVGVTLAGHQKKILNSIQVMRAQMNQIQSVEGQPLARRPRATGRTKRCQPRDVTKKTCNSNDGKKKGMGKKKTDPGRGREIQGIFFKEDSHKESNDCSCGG

MERTK = MERTK (UniProt Q12866); experiment: as above
Chain of MERTK (Q12866 whole entry, looked up): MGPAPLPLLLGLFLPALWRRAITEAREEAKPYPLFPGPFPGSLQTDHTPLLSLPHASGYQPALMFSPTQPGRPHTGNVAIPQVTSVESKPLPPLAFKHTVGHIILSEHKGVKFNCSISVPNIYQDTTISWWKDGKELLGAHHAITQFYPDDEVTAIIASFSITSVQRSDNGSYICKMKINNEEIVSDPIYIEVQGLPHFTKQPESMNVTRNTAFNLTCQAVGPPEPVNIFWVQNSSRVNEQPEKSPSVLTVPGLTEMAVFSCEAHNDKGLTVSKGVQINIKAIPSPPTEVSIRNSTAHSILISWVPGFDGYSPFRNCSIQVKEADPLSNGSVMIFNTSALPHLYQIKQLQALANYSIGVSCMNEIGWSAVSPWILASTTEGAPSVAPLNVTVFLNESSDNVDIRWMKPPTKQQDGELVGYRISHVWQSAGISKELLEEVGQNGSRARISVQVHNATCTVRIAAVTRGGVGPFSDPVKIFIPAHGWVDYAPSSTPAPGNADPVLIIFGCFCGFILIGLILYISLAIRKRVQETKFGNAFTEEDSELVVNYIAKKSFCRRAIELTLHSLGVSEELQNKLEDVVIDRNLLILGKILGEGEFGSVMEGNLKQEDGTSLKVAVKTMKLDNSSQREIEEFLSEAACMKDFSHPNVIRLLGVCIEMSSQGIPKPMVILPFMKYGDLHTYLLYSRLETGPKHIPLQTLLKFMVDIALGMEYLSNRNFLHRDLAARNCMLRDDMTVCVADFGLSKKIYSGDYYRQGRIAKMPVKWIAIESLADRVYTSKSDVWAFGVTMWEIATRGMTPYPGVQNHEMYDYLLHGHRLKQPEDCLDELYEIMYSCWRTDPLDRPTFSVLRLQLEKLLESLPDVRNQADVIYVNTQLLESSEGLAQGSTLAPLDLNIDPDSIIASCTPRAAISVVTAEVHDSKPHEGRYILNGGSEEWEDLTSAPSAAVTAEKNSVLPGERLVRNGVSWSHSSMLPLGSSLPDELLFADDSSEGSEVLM

c-Abl (mouse) = experiment: as above
SHP2-C SH2 = experiment: SH2 binding enrichment of the phosphorylated peptide, bacterial display (enrichment ratio); higher = better substrate or ligand; peptides without Tyr show the background
Grb2 SH2 = Grb2 SH2 (UniProt P62993); experiment: as above
Chain of Grb2 SH2 (P62993 whole entry, looked up): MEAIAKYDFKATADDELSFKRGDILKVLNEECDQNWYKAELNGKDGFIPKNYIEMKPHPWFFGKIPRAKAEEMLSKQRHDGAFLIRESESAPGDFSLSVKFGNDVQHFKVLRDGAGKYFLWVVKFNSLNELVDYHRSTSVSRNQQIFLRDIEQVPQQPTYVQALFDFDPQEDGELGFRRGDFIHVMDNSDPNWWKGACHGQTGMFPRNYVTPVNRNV

c-Src SH2 = experiment: as above
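For SH2 binding enrichment of the phosphorylated peptide, bacterial display in this document: peptide library displayed on the E. coli surface as eCPX fusions, selected cells deep-sequenced, score is each peptide's frequency after selection divided by its frequency in the input.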
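For phosphorylation enrichment, bacterial display in this document: 11-residue human phosphosite peptides and single-mutation variants displayed on the E. coli surface, counted by deep sequencing, each peptide's frequency after selection divided by its frequency in the unselected input library; frequency after pTyr selection over input frequency; kinase dosed for 20-30% of maximal phosphorylation in three min.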

Chain of EPHB1 (P54762 whole entry, looked up): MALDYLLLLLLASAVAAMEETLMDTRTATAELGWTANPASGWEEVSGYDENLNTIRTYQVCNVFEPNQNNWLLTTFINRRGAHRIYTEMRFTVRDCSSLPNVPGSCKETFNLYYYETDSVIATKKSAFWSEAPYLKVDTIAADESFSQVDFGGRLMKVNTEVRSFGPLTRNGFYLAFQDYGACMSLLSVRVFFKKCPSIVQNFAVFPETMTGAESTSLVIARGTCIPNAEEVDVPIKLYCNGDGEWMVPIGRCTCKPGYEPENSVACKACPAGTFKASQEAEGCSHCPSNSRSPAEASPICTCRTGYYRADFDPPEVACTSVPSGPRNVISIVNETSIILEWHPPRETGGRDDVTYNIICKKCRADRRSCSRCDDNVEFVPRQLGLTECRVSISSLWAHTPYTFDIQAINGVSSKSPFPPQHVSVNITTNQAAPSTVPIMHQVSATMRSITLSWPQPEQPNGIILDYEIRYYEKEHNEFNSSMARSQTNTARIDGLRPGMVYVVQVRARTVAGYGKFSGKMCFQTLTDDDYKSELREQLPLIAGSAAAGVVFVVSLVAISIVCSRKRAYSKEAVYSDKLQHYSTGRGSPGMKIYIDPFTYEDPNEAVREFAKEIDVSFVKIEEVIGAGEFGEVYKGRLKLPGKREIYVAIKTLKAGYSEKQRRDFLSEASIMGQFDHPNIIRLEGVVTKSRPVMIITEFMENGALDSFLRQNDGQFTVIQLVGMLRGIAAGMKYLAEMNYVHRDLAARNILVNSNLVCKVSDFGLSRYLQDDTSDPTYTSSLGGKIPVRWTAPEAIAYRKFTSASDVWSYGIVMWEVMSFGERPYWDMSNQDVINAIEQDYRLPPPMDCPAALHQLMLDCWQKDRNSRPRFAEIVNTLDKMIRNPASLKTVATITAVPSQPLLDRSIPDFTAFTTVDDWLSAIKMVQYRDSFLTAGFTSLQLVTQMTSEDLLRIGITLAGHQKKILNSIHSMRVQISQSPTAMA

| Sequence | phosphorylation enrichment (EPHB1) | phosphorylation enrichment (FGFR1) | phosphorylation enrichment (Fer (mouse)) | phosphorylation enrichment (Hck) | phosphorylation enrichment (Fyn) | phosphorylation enrichment (c-Src) | phosphorylation enrichment (Jak2) | phosphorylation enrichment (FGFR3) | phosphorylation enrichment (Fes) | phosphorylation enrichment (AncSZ) | phosphorylation enrichment (EPHB2) | phosphorylation enrichment (MERTK) | phosphorylation enrichment (c-Abl (mouse)) | SH2 binding enrichment (SHP2-C SH2) | SH2 binding enrichment (Grb2 SH2) | SH2 binding enrichment (c-Src SH2) |
| --- | --- | --- | --- | --- | --- | --- | --- | --- | --- | --- | --- | --- | --- | --- | --- | --- |
| SFPSFYTSHVQ [NEFL_Y443_YF] | 0.677 | 0.5 | 0.509 | 0.548 | 0.563 | 0.509 | 0.657 | 0.609 | 0.857 | 0.874 | 0.584 | 1.23 | 0.498 | 1.1 | 0.889 | 0.47 |
| SGDINYGQFAQ [PLCG1_Y210_T209N] | 0.478 | 0.289 | 0.423 | 0.65 | 0.554 | 0.647 | 0.631 | 0.548 | 0.683 | 0.727 | 0.63 | 0.387 | 0.874 | 0.596 | 1.07 | 0.526 |
| SGKSEYLLPVA [MYLK_Y611_R607G] | 0.486 | 0.456 | 0.45 | 0.362 | 0.453 | 0.453 | 0.721 | 0.554 | 0.89 | 1.08 | 0.424 | 0.397 | 1.17 | 0.465 | 0.801 | 0.383 |
| SHISGYATLRR [RAPH1_Y1226] | 0.374 | 0.392 | 0.399 | 0.4 | 0.392 | 0.382 | 0.628 | 0.562 | 0.753 | 0.941 | 0.391 | 0.438 | 0.43 | 1.65 | 0.697 | 0.567 |
| SIKDKYVMALF [KCNH2_Y611_T613M_YF] | 0.405 | 0.535 | 0.385 | 0.496 | 0.429 | 0.393 | 0.721 | 0.574 | 0.888 | 0.664 | 0.491 | 0.447 | 0.558 | 0.845 | 1.06 | 0.699 |
| SIKDKYVTALY [KCNH2_Y611] | 0.463 | 0.387 | 0.389 | 0.785 | 0.489 | 0.575 | 0.597 | 0.472 | 0.72 | 0.639 | 0.403 | 0.506 | 0.507 | 0.581 | 0.747 | 0.437 |
| SIKDKYVTAVY [KCNH2_Y611_L615V] | 0.446 | 0.498 | 0.431 | 0.552 | 0.545 | 0.49 | 0.585 | 0.638 | 0.705 | 0.565 | 0.423 | 0.443 | 0.441 | 0.664 | 0.808 | 0.48 |
| SIKDKYVTVLF [KCNH2_Y611_A614V_YF] | 0.481 | 0.482 | 0.392 | 0.546 | 0.442 | 0.361 | 0.743 | 0.646 | 0.91 | 0.763 | 0.48 | 0.375 | 0.549 | 10.8 | 1.04 | 0.669 |
| SIRYNYLLDVL [FGFR4_Y237] | 0.394 | 0.479 | 0.47 | 0.603 | 0.495 | 0.443 | 0.674 | 0.636 | 0.745 | 0.943 | 0.524 | 0.509 | 0.821 | 0.747 | 0.789 | 1.7 |
| SKHHLYSDLQT [PTCHD1_Y84_R82H] | 0.462 | 0.55 | 1.91 | 0.985 | 0.505 | 0.634 | 0.887 | 0.589 | 0.786 | 0.487 | 0.389 | 2.23 | 0.51 | 0.966 | 1.06 | 10 |
| SKKSTYQALLD [GANC_Y43] | 0.394 | 0.416 | 0.305 | 0.433 | 0.447 | 0.423 | 0.907 | 0.405 | 0.541 | 0.563 | 0.369 | 0.403 | 0.382 | 0.595 | 0.788 | 0.555 |
| SKNFTYIWWLN [PSG4_Y271_YF] | 0.675 | 0.498 | 0.508 | 0.435 | 0.416 | 0.402 | 1.26 | 0.884 | 1.36 | 1.18 | 0.611 | 0.391 | 0.78 | 0.513 | 0.646 | 0.409 |
| SKNSKCNAEST [PSEN1_Y315_Y315C] | 0.48 | 0.769 | 0.508 | 0.499 | 0.379 | 0.383 | 0.51 | 0.486 | 0.768 | 0.546 | 0.463 | 0.368 | 0.566 | 0.754 | 0.913 | 0.546 |
| SLALFYRKVFH [RBL1_Y792_YF] | 0.637 | 0.532 | 0.494 | 0.441 | 0.502 | 0.409 | 1.11 | 0.784 | 1.26 | 1.36 | 0.569 | 0.385 | 0.535 | 0.876 | 0.767 | 0.454 |
| SLALFYRKVYH [RBL1_Y792] | 0.667 | 0.575 | 0.566 | 0.518 | 0.481 | 0.379 | 1.14 | 0.776 | 1.23 | 1.23 | 0.643 | 0.408 | 0.593 | 0.795 | 0.689 | 0.522 |
| SLFNGYVFSGV [NEIL3_Y71_YF] | 0.514 | 0.562 | 0.494 | 0.555 | 0.451 | 0.418 | 0.908 | 0.584 | 0.77 | 0.779 | 0.567 | 0.472 | 0.624 | 0.719 | 0.71 | 0.967 |
